Measurements published in IntAct's records for PubMed 10648618.

B1: Carbon catabolite-derepressing protein kinase (Saccharomyces cerevisiae), P06782 (parent)
chain: MSSNNNTNTAPANANSSHHHHHHHHHHHHHGHGGSNSTLNNPKSSLADGAHIGNYQIVKTLGEGSFGKVKLAYHTTTGQKVALKIINKKVLAKSDMQGRIEREISYLRLLRHPHIIKLYDVIKSKDEIIMVIEYAGNELFDYIVQRDKMSEQEARRFFQQIISAVEYCHRHKIVHRDLKPENLLLDEHLNVKIADFGLSNIMTDGNFLKTSCGSPNYAAPEVISGKLYAGPEVDVWSCGVILYVMLCRRLPFDDESIPVLFKNISNGVYTLPKFLSPGAAGLIKRMLIVNPLNRISIHEIMQDDWFKVDLPEYLLPPDLKPHPEEENENNDSKKDGSSPDNDEIDDNLVNILSSTMGYEKDEIYESLESSEDTPAFNEIRDAYMLIKENKSLIKDMKANKSVSDELDTFLSQSPPTFQQQSKSHQKSQVDHETAKQHARRMASAITQQRTYHQSPFMDQYKEEDSTVSILPTSLPQIHRANMLAQGSPAASKISPLVTKKSKTRWHFGIRSRSYPLDVMGEIYIALKNLGAEWAKPSEEDLWTIKLRWKYDIGNKTNTNEKIPDLMKMVIQLFQIETNNYLVDFKFDGWESSYGDDTTVSNISEDEMSTFSAYPFLHLTTKLIMELAVNSQSN
partner: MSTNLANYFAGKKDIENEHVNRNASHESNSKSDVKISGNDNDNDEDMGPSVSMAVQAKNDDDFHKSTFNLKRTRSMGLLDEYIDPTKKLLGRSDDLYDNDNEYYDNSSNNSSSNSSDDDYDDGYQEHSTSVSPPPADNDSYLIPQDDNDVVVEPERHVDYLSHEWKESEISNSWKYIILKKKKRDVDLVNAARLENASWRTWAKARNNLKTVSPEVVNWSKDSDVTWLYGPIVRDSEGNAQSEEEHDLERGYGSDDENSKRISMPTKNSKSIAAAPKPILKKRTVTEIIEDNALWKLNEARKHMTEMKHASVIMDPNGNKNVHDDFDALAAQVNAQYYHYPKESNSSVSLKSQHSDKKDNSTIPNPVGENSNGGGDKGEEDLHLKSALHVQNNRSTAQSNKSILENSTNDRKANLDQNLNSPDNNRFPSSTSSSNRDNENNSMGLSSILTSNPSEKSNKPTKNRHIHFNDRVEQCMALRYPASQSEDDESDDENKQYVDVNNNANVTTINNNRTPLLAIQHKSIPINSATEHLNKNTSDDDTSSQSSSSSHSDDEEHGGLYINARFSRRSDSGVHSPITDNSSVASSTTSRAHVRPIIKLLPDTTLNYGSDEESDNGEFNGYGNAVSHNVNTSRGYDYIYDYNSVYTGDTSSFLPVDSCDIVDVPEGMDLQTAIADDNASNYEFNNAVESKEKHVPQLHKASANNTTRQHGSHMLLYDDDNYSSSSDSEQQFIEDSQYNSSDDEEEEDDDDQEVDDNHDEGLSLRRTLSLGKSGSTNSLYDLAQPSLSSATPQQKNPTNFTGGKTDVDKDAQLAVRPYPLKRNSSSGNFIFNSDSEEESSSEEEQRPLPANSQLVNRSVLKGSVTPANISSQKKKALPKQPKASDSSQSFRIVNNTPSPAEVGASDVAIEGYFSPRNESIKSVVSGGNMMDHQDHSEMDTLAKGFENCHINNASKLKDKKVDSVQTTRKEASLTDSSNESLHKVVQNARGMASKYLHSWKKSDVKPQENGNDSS

Variants of: B1
Conditions: with reg1_yeast REG1, Q00816

| effect of a mutation on the interaction | Variant |
| --- | --- |
| with no effect | K84R |

Variants of: B1
Conditions: with reg1_yeast REG1, Q00816
Remark: another data set of the same source

| effect of a mutation on the interaction | Variant |
| --- | --- |
| increasing interaction strength | K84R |
